From patent publication US20090170750A1 (Novo Nordisk, published 2009)

Target: purified recombinant human insulin receptor-exon 11 (human) (UniProt P06213)
Assay: competition with 125I-insulin (SPA)

purified recombinant human insulin receptor-exon 11 (human), sequence (P06213 other isoform, or with tags, fused parts or gaps limits assumed, form in doubt): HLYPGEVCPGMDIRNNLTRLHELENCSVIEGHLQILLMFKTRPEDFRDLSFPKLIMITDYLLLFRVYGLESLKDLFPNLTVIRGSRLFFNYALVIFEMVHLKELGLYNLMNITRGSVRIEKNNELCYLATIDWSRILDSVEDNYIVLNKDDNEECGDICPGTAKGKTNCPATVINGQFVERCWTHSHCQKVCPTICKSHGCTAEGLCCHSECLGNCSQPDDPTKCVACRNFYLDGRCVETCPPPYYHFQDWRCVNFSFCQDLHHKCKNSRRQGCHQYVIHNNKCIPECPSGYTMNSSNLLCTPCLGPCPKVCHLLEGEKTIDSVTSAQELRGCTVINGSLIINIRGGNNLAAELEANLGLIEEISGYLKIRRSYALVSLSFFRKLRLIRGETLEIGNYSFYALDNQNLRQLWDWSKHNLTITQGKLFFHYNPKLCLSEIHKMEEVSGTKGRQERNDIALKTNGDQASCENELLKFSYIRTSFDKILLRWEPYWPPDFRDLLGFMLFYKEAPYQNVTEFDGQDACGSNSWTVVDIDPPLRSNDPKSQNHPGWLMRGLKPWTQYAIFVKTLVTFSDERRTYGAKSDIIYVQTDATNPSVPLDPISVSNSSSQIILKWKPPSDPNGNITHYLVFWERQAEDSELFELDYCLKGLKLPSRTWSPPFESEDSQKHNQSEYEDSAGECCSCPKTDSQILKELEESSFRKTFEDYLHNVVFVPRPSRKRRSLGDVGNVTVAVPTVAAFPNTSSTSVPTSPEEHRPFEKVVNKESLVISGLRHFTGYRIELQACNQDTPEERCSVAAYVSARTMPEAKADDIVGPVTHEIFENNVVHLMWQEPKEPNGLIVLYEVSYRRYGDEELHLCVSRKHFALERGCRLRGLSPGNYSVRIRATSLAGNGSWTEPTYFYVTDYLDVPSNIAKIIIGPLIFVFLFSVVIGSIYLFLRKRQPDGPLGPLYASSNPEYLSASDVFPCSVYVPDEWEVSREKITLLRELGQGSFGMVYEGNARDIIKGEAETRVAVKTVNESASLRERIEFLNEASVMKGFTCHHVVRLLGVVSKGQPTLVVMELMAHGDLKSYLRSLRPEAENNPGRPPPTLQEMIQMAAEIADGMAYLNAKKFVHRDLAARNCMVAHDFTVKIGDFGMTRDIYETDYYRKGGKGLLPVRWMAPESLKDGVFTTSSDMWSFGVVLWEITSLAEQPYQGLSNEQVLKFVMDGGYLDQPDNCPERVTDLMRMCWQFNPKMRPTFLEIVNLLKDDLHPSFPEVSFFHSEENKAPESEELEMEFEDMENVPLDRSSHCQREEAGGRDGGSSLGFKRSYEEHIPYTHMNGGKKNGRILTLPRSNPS

IR, binding relative to human insulin [%]	Substance
33	single-chain insulin PAK 1723, connecting peptide VGSSRGK [A21G] (from UniProt P01308 25-53; P01308 90-110) (ligand)
42	single-chain insulin PAK 1733, connecting peptide VGSSSGK [A21G] (from UniProt P01308 25-53; P01308 90-110) (ligand)
211	single-chain insulin PAK 1734, connecting peptide VGLSSGK [A21G] (from UniProt P01308 25-53; P01308 90-110) (ligand)
89	single-chain insulin PAK 1738, connecting peptide VGSSSGK [A18Q] (from UniProt P01308 25-53; P01308 90-110) (ligand)
90	single-chain insulin PAK 1740, connecting peptide VGSSSGK [B1G_B3Q_A18Q_A21G] (from UniProt P01308 25-53; P01308 90-110) (ligand)
80	single-chain insulin PAK 1744, connecting peptide VGSSSGK [A18Q_A21G] (from UniProt P01308 25-53; P01308 90-110) (ligand)
20	single-chain insulin PAK 1762, connecting peptide AGMGSGP [A18Q_A21G] (from UniProt P01308 25-53; P01308 90-110) (ligand)
120	single-chain insulin PAK 1764, connecting peptide AGLGSGK [A18Q_A21G] (from UniProt P01308 25-53; P01308 90-110) (ligand)
28	single-chain insulin PAK 1767, connecting peptide AGRGSGP [A18Q_A21G] (from UniProt P01308 25-53; P01308 90-110) (ligand)
23	single-chain insulin PAK 1784, connecting peptide WASGSGK [A18Q_A21G] (from UniProt P01308 25-53; P01308 90-110) (ligand)
136	single-chain insulin PAK 1785, connecting peptide ASWGSGK [A18Q_A21G] (from UniProt P01308 25-53; P01308 90-110) (ligand)
123	single-chain insulin PAK 1787, connecting peptide VGLSSGQ [A18Q_A21G] (from UniProt P01308 25-53; P01308 90-110) (ligand)
323	single-chain insulin PAK 1788, connecting peptide VGLYSGK [A18Q_A21G] (from UniProt P01308 25-53; P01308 90-110) (ligand)
248	single-chain insulin PAK 1789, connecting peptide VGLRSGK [A18Q_A21G] (from UniProt P01308 25-53; P01308 90-110) (ligand)
261	single-chain insulin PAK 1790, connecting peptide VGLMSGK [A18Q_A21G] (from UniProt P01308 25-53; P01308 90-110) (ligand)
226	single-chain insulin PAK 1791, connecting peptide HGLYSGK [A18Q_A21G] (from UniProt P01308 25-53; P01308 90-110) (ligand)
102	single-chain insulin PAK 1796, connecting peptide AWSGSGK [A18Q_A21G] (from UniProt P01308 25-53; P01308 90-110) (ligand)
175	single-chain insulin PAK 1800, connecting peptide AGRGSGK [A18Q_A21G] (from UniProt P01308 25-53; P01308 90-110) (ligand)
25	single-chain insulin PAK 1802, connecting peptide AGRGK [A18Q_A21G] (from UniProt P01308 25-53; P01308 90-110) (ligand)
83	single-chain insulin PAK 1805, connecting peptide AGRGSGK [B3Q_A18Q_A21G] (from UniProt P01308 25-53; P01308 90-110) (ligand)
86	single-chain insulin PAK 1808, connecting peptide AGRGSGK [B1G_B3Q_A18Q_A21G] (from UniProt P01308 25-53; P01308 90-110) (ligand)
73	single-chain insulin PAK 1810, connecting peptide TGLGSGQ [A18Q_A21G] (from UniProt P01308 25-53; P01308 90-110) (ligand)
136	single-chain insulin PAK 1811, connecting peptide TGLGSGK [A18Q_A21G] (from UniProt P01308 25-53; P01308 90-110) (ligand)

IR, binding relative to human insulin [%]	Substance
118	single-chain insulin PAK 1812, connecting peptide TGLGRGK [A18Q_A21G] (from UniProt P01308 25-53; P01308 90-110) (ligand)
37	single-chain insulin PAK 1816, connecting peptide AGLGSGQ [B3Q_A18Q] (from UniProt P01308 25-53; P01308 90-110) (ligand)
63	single-chain insulin PAK 1817, connecting peptide AGRGSGK [A21G] (from UniProt P01308 25-53; P01308 90-110) (ligand)
125	single-chain insulin PAK 1818, connecting peptide KGLGSGQ [B3Q_B29R_A18Q_A21G] (from UniProt P01308 25-53; P01308 90-110) (ligand)
128	single-chain insulin PAK 1821, connecting peptide TGLGSGK [B3Q_B29R_A18Q_A21G] (from UniProt P01308 25-53; P01308 90-110) (ligand)
75	single-chain insulin PAK 1824, connecting peptide GRGSGK [B1G_B3Q_A18Q_A21G] (from UniProt P01308 25-53; P01308 90-110) (ligand)
50	single-chain insulin PAK 1835, connecting peptide TGLGKGQ [B29E_A18Q] (from UniProt P01308 25-53; P01308 90-110) (ligand)
113	single-chain insulin PAK 1838, connecting peptide TGLGKGQ [B29R_A18Q] (from UniProt P01308 25-53; P01308 90-110) (ligand)
92	single-chain insulin PAK 1846, connecting peptide TGLGKGR [B29A_A18Q] (from UniProt P01308 25-53; P01308 90-110) (ligand)
82	single-chain insulin PAK 1847, connecting peptide TGLGKGR [B27E_B29A_A18Q] (from UniProt P01308 25-53; P01308 90-110) (ligand)
40	single-chain insulin PAK 1848, connecting peptide TGLGKGR [B27E_B29E_A18Q] (from UniProt P01308 25-53; P01308 90-110) (ligand)
60	single-chain insulin PAK 1849, connecting peptide TGLGKGR [B29E_A18Q] (from UniProt P01308 25-53; P01308 90-110) (ligand)
40	single-chain insulin PAK 1854, connecting peptide VGLYSGK [B29E_A18Q] (from UniProt P01308 25-53; P01308 90-110) (ligand)
221	single-chain insulin PAK 1855, connecting peptide VGLYSGK [B28D_A18Q] (from UniProt P01308 25-53; P01308 90-110) (ligand)
83	single-chain insulin PAK 1860, connecting peptide VGSSSGK [B3K_A18Q_A21G] (from UniProt P01308 25-53; P01308 90-110) (ligand)
301	single-chain insulin PAK 1864, connecting peptide TGLGSGK [B3K_A18Q_A21G] (from UniProt P01308 25-53; P01308 90-110) (ligand)
196	single-chain insulin PAK 1866, connecting peptide VGLSSGQ [A18Q] (from UniProt P01308 25-53; P01308 90-110) (ligand)
69	single-chain insulin PAK 1869, connecting peptide VGLSSGQ [B22K_B29A_A18Q] (from UniProt P01308 25-53; P01308 90-110) (ligand)
82	single-chain insulin PAK 1871, connecting peptide VGLSSGQ [B29A_A18K] (from UniProt P01308 25-53; P01308 90-110) (ligand)
35	single-chain insulin PAK 1875, connecting peptide VGLSSGQ [B28K_B29A_A18Q] (from UniProt P01308 25-53; P01308 90-110) (ligand)
38	single-chain insulin PAK 1876, connecting peptide VGLSSGQ [B27K_B29A_A18Q] (from UniProt P01308 25-53; P01308 90-110) (ligand)
140	single-chain insulin PAK 1877, connecting peptide TGLGSGK [B28D_A18Q] (from UniProt P01308 25-53; P01308 90-110) (ligand)
172	single-chain insulin PAK 1878, connecting peptide VGLSSGQ [B3K_A18K_A21G] (from UniProt P01308 25-53; P01308 90-110) (ligand)
